US20090162358A1 (GlaxoSmithKline, published 2009)
Several values for one entry are separate records, joined by “and”; a condition that tells them apart may be missing. Equal values may be shown once. Each block holds one binder with its values, some of them ahead of it. Ends that are not written are not given here. * marks the point of attachment. Biotin = O=C1N[C@H]2[C@H](CS[C@H]2CCCCC(=O)*)N1

Tests used:
[1] = molecular target: T1, C-terminally biotinylated peptide representing 31-42 of the β-amyloid sequence; assay: SPR Biacore 3000, biotinylated peptide on streptavidin chip
T1 construct: Captured on a streptavidin sensorchip; also called peptide 31-42
T1 peptide: IIGLMVGGVVIAGSG-biotin
Protocol: (§1) Purified 6F6 monoclonal antibody was injected for 3 min at 8-64 nM over C-terminally biotinylated peptides representing 24-35 (SEQ ID No:10: […]), 28-39 (SEQ ID No:11: […]) and 31-42 (SEQ ID No:12: […]) of the β-amyloid sequence captured by a streptavidin coated sensorchip. The experiment was performed using a Biacore 3000 instrument. […] It may also indicate that residues 31-35 are not sufficient for binding 6F6 and residues above position 35 appear not to be involved in binding this antibody.

[2] = molecular target: T2, ovalbumin protein (UniProt P01012 2-386); assay: FMAT bead immunoassay, culture supernatant
T2 sequence (looked up): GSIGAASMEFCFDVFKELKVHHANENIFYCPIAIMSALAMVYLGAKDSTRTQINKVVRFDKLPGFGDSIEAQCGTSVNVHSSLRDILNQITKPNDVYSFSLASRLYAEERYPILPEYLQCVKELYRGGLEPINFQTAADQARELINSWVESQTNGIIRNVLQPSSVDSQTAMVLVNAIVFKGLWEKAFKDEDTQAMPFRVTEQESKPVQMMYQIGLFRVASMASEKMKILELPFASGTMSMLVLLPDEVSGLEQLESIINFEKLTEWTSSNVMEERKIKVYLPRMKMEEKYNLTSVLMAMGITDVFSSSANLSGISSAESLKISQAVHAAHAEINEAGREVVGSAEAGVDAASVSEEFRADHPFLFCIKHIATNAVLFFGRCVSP
Text: (§2) Each of the expressed antibodies contained in culture supernatant was then screened in an FMAT (Fluorescent Microvolume Assay Technology) homogenous immunoassay. 29 positive antibodies were identified from this screening cascade that were negative for ovalbumin protein passively absorbed to polystyrene beads but positive for: [0158] (i) N-terminal coupled […] (22-38) (SEQ ID No:73) ovalbumin conjugate bound to polystyrene beads, [0159] (ii) N-terminal biotinylated β-amyloid(1-40) peptide bound to streptavidin coated polystyrene beads, [0160] (iii) C-terminal biotinylated β-amyloid(1-40) peptide bound to streptavidin coated polystyrene beads and [0161] (iv) N-terminal biotinylated β-amyloid (24-34) peptide, residues 24-34 of β-amyloid being […] (SEQ ID No:8), bound to streptavidin coated polystyrene beads.

[3] = molecular target: T3, N-terminal coupled CGGGEDVGSNKGAIIGLMVGG (22-38) ovalbumin conjugate (coupled by the N-terminus to ovalbumin); assay: FMAT bead immunoassay, culture supernatant
T3 peptide: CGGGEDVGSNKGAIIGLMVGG
Text: as §2

[4] = molecular target: T4, N-terminal biotinylated β-amyloid (24-34) peptide; assay: FMAT bead immunoassay, culture supernatant
T4 peptide: Biotin-VGSNKGAIIGL
Text: as §2

[5] = molecular target: T5, mouse β-amyloid (1-42) (mouse, UniProt P12023 672-713); assay: SPR Biacore, same method as Table 2
T5 construct: domain: β-amyloid (1-42)
T5 peptide (looked up): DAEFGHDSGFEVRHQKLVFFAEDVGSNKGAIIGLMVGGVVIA
Protocol: (§3) Purified mouse antibody preparations were captured on a polyclonal anti-mouse IgG antibody chip surface. Freshly prepared human β-amyloid 1-40 was diluted down in HBS-EP buffer and passed over the captured antibody surface at concentrations ranging from 4-500 nM for 5 minutes. […] Regeneration was achieved via a pulse of 100 mM H₃PO₄. […] All runs were double referenced against a blank surface and blank buffer injections.
(§4) The same Biacore method was also used to investigate binding of 6F6 to human and mouse β-amyloid (1-40) and β-amyloid (1-42). 6F6 bound to all of these peptides with similar values.

[6] = molecular target: T6, mouse β-amyloid (1-40) (mouse, UniProt P12023 672-711); assay: SPR Biacore, same method as Table 2
T6 construct: domain: β-amyloid (1-40)
T6 peptide (looked up): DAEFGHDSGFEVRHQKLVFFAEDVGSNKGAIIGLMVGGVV
Protocol: as §3, §4

[7] = molecular target: T7, human β-amyloid 1-40 (human, UniProt P05067 672-711); assay: SPR Biacore 3000; mAb captured on anti-mouse IgG, Aβ 1-40 at 4-500 nM
T7 construct: domain: β-amyloid (1-40); Used in solution over captured antibody (Biacore) or coated on ELISA plates; also called human Aβ peptide (1-40); Aβ peptide (1-40)
Protocol: as §3

[8] = molecular target: T8, C-terminally biotinylated peptide representing 24-35 of the β-amyloid sequence; assay: SPR Biacore 3000, biotinylated peptide on streptavidin chip, 6F6 at 8-64 nM
T8 construct: Captured on a streptavidin sensorchip; also called peptide 24-35
T8 peptide: VGSNKGAIIGLMGSG-biotin
Protocol: as §1

[9] = molecular target: T9, C-terminally biotinylated peptide representing 28-39 of the β-amyloid sequence; assay: as above
T9 construct: Captured on a streptavidin sensorchip; also called peptide 28-39
T9 peptide: KGAIIGLMVGGVGSG-biotin
Protocol: as §1

[10] = molecular target: T7, human β-amyloid 1-40; assay: SPR Biacore 3000; mAb captured on anti-mouse IgG; triplicate run
Protocol: as §3

[11] = molecular target: T10, biotinylated β-amyloid 1-40 (human Aβ1-40 peptide in solution, competition ELISA) (human, UniProt P05067 672-711, biotin, position not stated); assay: competition ELISA: antibody pre-incubated with biotinylated Aβ 1-40, free Aβ captured on immobilised mouse 6F6 (competitor); Exp 2
T10 construct: domain: β-amyloid (1-40)
Protocol: (§5) 6F6c and humanised antibodies H₁₁L2, H11L9, H11L10, H11L12 and H11L13 were assessed for their ability to bind Aβ1-40 peptide in solution and inhibit the interaction of human Aβ1-40 peptide with mouse 6F6 monoclonal antibody in a competition ELISA. A constant concentration of biotinylated β-amyloid 1-40 was pre-incubated with serial diluted amounts of humanised 6F6 antibody variants. The mixture including complexed and free amyloid was then added to wells containing immobilised mouse 6F6 monoclonal antibody and incubated for 15 minutes at room temperature. Plates were washed and the amount of free β-amyloid that was still available for binding the immobilised parental 6F6 monoclonal antibody was then detected using streptavidin-HRP conjugate.

[12] = molecular target: T7, human β-amyloid 1-40; assay: SPR Biacore T100; antibody captured on anti-human IgG, Aβ 1-40 at 1-256 nM; 1:1 model
Protocol: (§6) Anti-human IgG (Biacore BR-1008-39) was coupled to a CM5 biosensor chip by primary amine coupling. The anti-beta amyloid antibodies were captured on this surface. Beta amyloid (1-40) was then passed over at 256, 64, 16, 4 and 1 nM, with a 0 nM (ie buffer alone passed over the captured antibody surface) used for double referencing. […] The data was analysed using the 1:1 model inherent to the T100. The run was carried out at 25° C. and 37° C. using HBS-EP as the running buffer.

[13] = molecular target: T10, biotinylated β-amyloid 1-40 (human …); assay: competition ELISA: antibody pre-incubated with biotinylated Aβ 1-40, free Aβ captured on immobilised mouse 6F6 (competitor); Exp 1
Protocol: as §5

[14] = molecular target: T7, human β-amyloid 1-40; assay: SPR Biacore T100, 25 C; antibody captured on protein A, Aβ 1-40 at 2-256 nM; mean of three experiments
Protocol: The affinity of selected heavy and light chain combinations was determined using a Biacore T100 instrument. Three independent experiments were performed using humanised antibody immobilised via protein A surface Biacore chips and injection of β-amyloid 1-40 peptides. The chimeric molecule of 6F6 served as a reference molecule. For this Protein A was immobilised on a CM5 chip by primary amine coupling in accordance with manufactures recommendations. Anti-β-amyloid antibodies were captured on this surface and after a period of stabilisation human β-amyloid 1-40 was passed over at concentrations 256-2 nM in halving dilutions. A buffer injection over the captured antibody surface was used to double reference the data set in accordance with Biacore best practice. […] The work was carried out in HBS-EP at 25° C. Results are summarised in Table 13 as the mean of all three experiments.

[15] = molecular target: T7, human β-amyloid 1-40; assay: SPR Biacore T100 at 37 C; antibody captured on anti-human IgG, Aβ 1-40 at 1-256 nM
Protocol: as §6
From this panel some constructs were also assessed for binding kinetics at physiological temperature.

[16] = molecular target: T11, N-terminally truncated β-amyloid peptide lacking residues D23 to I31 (residues 32-40) (UniProt P05067 703-711, not fully specified); assay: SRU BIND biosensor, biotinylated peptides on streptavidin plate
T11 construct: domain: β-amyloid residues 32-40; Stands also for the shorter peptides of the set ('and beyond'); not shown: SGSG linker lengthened to make a 22-mer
T11 peptide (looked up): Biotin-IGLMVGGVV-NH2
Text: (§7) The minimal binding epitope of the humanised monoclonal antibody H11L9 was fine mapped using SRU BIND plate reader (SRU Biosystems). Three peptide sets were generated, based on an 18 amino acid sequence for fine mapping of the epitope: a) an alanine scanning peptide set for which 10 of the residues 27-37 were replaced consecutively with an alanine residue; b) a set of N-terminally truncated peptides where one residue was removed successively from the N-terminus of the 18-mer peptide starting with residue 23 and c) a set of C-terminally truncated peptides where one residue was removed successively from the C-terminus of the 18-mer peptide starting with residue 40.
(§8) A streptavidin coated biosensor plate (SRU Biosystems) was washed with PBS and spun upside down to remove buffer and then washed with PBS, 0.1% tween 20 and 0.4% acetonitrile and spun upside down to remove residual buffer. Wells were resuspended in 100 ul of PBS, 0.1% tween 20 and 0.4% acetonitrile and read on the SRU plate reader to establish a baseline. […] The plate was then washed with PBS twice and then resuspended in 100 ul of PBS and the baseline re-measured. […] Binding of the antibodies was monitored. Plates were washed twice with PBS and resuspended in 100 ul of PBS, and the plates were re-measured and referenced back to the addition of antibody to look for weak binders that would be removed by the washing step. […]

[17] = molecular target: T12, C-terminally truncated β-amyloid peptide lacking residues V40 to G33 (residues 23-32) (UniProt P05067 694-703, not fully specified); assay: as above
T12 construct: domain: β-amyloid residues 23-32; Stands also for the shorter peptides of the set ('and beyond'); not shown: SGSG linker lengthened to make a 22-mer
T12 peptide (looked up): Biotin-DVGSNKGAII-NH2
Text: as §7, §8

- binding result [1]: no binding (tested: 8-64 nM)
- binding result [2]: no binding
- binding result [3]: binds
- binding result [4]: binds
- binding result [5]: binds
- binding result [6]: binds
- Kd [7]: 0.62 nM
- koff [7]: 6.57e-05 s⁻¹
- kon [7]: 106000 M⁻¹ s⁻¹
- binding result [8]: binds
- binding result [9]: binds
- Kd [10]: 1.02 nM
- koff [10]: 9.4e-05 s⁻¹
- kon [10]: 99300 M⁻¹ s⁻¹
B1: 6F6 murine monoclonal antibody (antibody, mouse IgG2a, V domains shown)
VH: EVQLQQSGAELVEPGASVKLSCTGSGFNIKVYYVHWLKQLTEQGLEWIGRIDPENGETIYTPKFQDKATLTVDTSSNTAYLQLSSLTSEDAAVYYCVSSGYWGQGTTLTVSS
VL: DIVMTQSAFSNPVTLGTSASISCRSSKSLLHRNGITYLYWYLQKPGQPPQLLIYQMSNLASGVPDRFTSSGSGTDFTLKISRVEAEDVGVYYCAQNLELWTFGGGTKLEIK
notes: also called 6F6 parental monoclonal antibody; mouse 6F6 monoclonal antibody

- IC50 [11]: 0.451 µg/mL
- Kd [12]: 1 nM
- IC50 [13]: 0.566 µg/mL
- Kd [14]: 3.74 nM
B2: chimeric 6F6 antibody (6F6c) (antibody, human IgG1, V domains shown)
VH: EVQLQQSGAELVEPGASVKLSCTGSGFNIKVYYVHWLKQLTEQGLEWIGRIDPENGETIYTPKFQDKATLTVDTSSNTAYLQLSSLTSEDAAVYYCVSSGYWGQGTLVTVSS
VL: DIVMTQSAFSNPVTLGTSASISCRSSKSLLHRNGITYLYWYLQKPGQPPQLLIYQMSNLASGVPDRFTSSGSGTDFTLKISRVEAEDVGVYYCAQNLELWTFGGGTKLEIK
notes: Murine V regions on human IgG1 (Fc disabled) and human C kappa; also called 6F6 Chimera (pur); chimeric molecule of 6F6

- IC50 [11]: 0.518 µg/mL
- Kd [15]: 2.89 nM and 3.11 nM
- Kd [12]: 2.47 nM and 2.46 nM
- binding result [16]: no binding (tested: 30 ug/ml)
- binding result [17]: no binding (tested: 30 ug/ml)
- IC50 [13]: 0.588 µg/mL
- Kd [14]: 4.91 nM
B3: humanised antibody H11L9 (antibody, human IgG1, kappa)
heavy: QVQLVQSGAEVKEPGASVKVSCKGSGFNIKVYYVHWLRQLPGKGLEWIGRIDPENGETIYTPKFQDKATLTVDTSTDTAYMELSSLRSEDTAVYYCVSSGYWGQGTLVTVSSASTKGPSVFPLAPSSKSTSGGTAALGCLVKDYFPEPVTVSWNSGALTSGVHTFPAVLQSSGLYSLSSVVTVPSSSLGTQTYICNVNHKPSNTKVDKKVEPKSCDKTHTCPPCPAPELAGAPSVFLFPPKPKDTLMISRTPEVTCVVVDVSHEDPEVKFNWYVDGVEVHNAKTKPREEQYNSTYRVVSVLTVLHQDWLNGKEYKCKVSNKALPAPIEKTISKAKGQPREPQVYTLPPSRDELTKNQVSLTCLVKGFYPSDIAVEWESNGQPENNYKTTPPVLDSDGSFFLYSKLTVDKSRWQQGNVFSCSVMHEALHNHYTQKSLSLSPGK
light: DIVMTQSPLSNPVTPGEPASISCRSSKSLLHRNGITYLYWYLQKPGQSPQLLIYQMSNLASGVPDRFSSSGSGTDFTLKISRVEAEDVGVYYCAQNLELWTFGQGTKVEIKRTVAAPSVFIFPPSDEQLKSGTASVVCLLNNFYPREAKVQWKVDNALQSGNSQESVTEQDSKDSTYSLSSTLTLSKADYEKHKVYACEVTHQGLSSPVTKSFNRGEC
notes: Human IgG1 Fc mutated heavy chain, human kappa; also called H11L9(sup); H11L9(pur)
